A short description of this data set: label from the status in PepcDB records.
In the case of “MSSSTGALHWQTAQAALARRDLGVAGSALQALLEVEPTHVSARVLLAGTVLANGRMREAVAQLQLAARDVDDDVAMRCRVAQALLRVGAHRQLHALLRHPSVMQCRDGATLALLAHVHQSLGEHVDALAMMQRAQVCGFDGPDFRFFLAVQLQFNGRLDDAAQALEQTLALVPGYGRAALTRARLRRQTVSSNHVDQLRQQLQRSKPDSEDRAGLAFALYKELEDLGDTDAAWDALQHGNAVMHARLRHDADAEASLYARLGTLAEQGVFAAQASDADAVALQGPQPIFVLGLPRSGTTVLERMLGNHSQIVSAGELNDFGHQLRWGADQAGRSLLDAGLLQAFPTLDYTQIGARYLEQTQWRAGPARWYIDKLPANAVAIGAIARALPGALIVHLVREPMAVCFSNYRALFGDSYAYSYDVHTLARHYQAYHGLMAQWRAALPGRVIDVDYTQMVRDPSTVLQQLMARCGLDIEPGQSDITRNAAASATLSSVQVREGVHSRNVEHWRRYAMQLEPLRQALAEAGLIDAGLH”, the protein production entry is reported as “failed”.

Consider “MSSSVVAETVPSGSGSWFSHFKATLVLGIPLIGAQLAQLGIHTTDMVIVGQLGAEKLAAMVLAGQFFFVVFIFGSGFSVAVVPMVAQAYGQGDATSARRSLRMGMWVAIAYWLLALPIFFNAERILVYLGQNPNVAALTGHYLAIAKFGLLPALLFYVLRGLVSAIGRAGIILYVTIIMLVMNGLMAYVLVFGHFGLPAMGMNGAAVVAVIVNAFSFIFIVAYVQTREETKKYELFVRFWRPDWHALFEVLRLGLPISITILAEVTLFAAASILMGQIGTVQLAAHGIALQLASIAFMIPLGLSQAATVRVGVARGQGDFKNLIRASIMIYAIACGIALCGGILFAAVPEFLAKWFLDPKLPEAAEVLAYASSLVVIAGIFQLVDGIQAVTAGLLRGLKDARIPAMLALISYWPIGLALAWTMAFPLGFGGRGVWFGFVIGLSTAAVLLTVRFVLLVKREMKTAR”, for which the protein production entry is on record as “failed”.

Regarding “MSSTKLIVLKSKELIYTAILLALIVVFVIILINMFKRNDKSDGSQSGPAKAVSAPADPGTGIYNTRYTPGTYSSPLILGENTLSVIVTVDDCQITDVSFQQMGETITTMYPLLESSLEDINTQLHYISSVDDIIPSGDSTYTTKLIIDSIKNALKEAVVN”, the protein production result is “failed”.

With “MSSVSDVAFFMEVVKAGTLSGAAQELGVSTAAVSRRLANLEVRLGIRLLNRTTRRAAVTYEGELYLAEGKKILGELEELEQRLASAHSVPKGLLRVNATFGFGRQFIAPAIADFVELHPDVDVQLSLSDRPVNLIEDGFDVCIRFGDLPDARLTSRKIACNRRLLCASPGYLERFGIPASPMDLQRHRCIVIRESDETYGAWHLYSGAAQANVKVRGTVSTNDGEVAVDWALRGLGILLRSEWNVAPYLRSGRLREVLGDWRFPPADIHAVYPMKSNLSAKVRAFVSHLDKHFEPYRPRAEGKSRW”, the protein production entry is given as “failed”.

As to “MSTALATLAGKLAERVGMDSVDPQELITTLRQTAFKGDASDAQFIALLIVANQYGLNPWTKEIYAFPDKQNGIVPVVGVDGWSRIINENQQFDGMDFEQDNESCTCRIYRKDRNHPICVTEWMDECRREPFKTREGREITGPWQSHPKRMLRHKAMIQCARLAFGFAGIYDKDEAERIVENTAYTAERQPERDITPVNDETMQEINTLLIALDKTWDDDLLPLCSQIFRRDIRASSELTQAEAVKALGFLKQKATEQKVAA”, the protein production entry is reported as “failed”.

For the sequence “MSTAVASAPRSGQVLADLLPASRVRDAALVLGGAALTGLAAQISLPVPGSPVPVTGQTFAALLVGTALGAGRGFLSLAVYALVGMAGVPWFAGGGSGAAAPSFGYILGMLLAATVVGALARRGADRSVLRTAGAMLLGEAIIYAIGVPYLAFATGMSLTAAIAAGLTPFLIGDALKAALAMGVLPTAWKFLNR”, the protein production result is “failed”.

For “MSTAVFLGFIVLSLYLALRSRKGTGSQSAHDFFVASRQFGAFLVFFLAAGEIYSVATMVGFAGGIYAKGPTYGIWFLGYILLAYPLGYFLAPKIWEAGQRFNAITLADLFKGHFDNRAVEFVVALSSILFLLPMAQLQFTGLIAAFRGLGWSFQPLHLVLIAAVLAFTYIAISGVRSSAYVAVLKDVLMVVAIVVTGLAVAGEVGVAKVFHVASEHVSNRMNDEQLRFSMSTILFQSLGFYMMPISVQFIYTAKSADTIRRTQVAMPLYMLMYPFLVLASYYALTRSDTLATANEAFFVAATHLLPSWLLGLVAAAAALSGLLVLTGMCLAIGPIVTRNLLPHLPESRQKAGAKGVIVVYLIVSILMTLMAPNLMLTLINTTYYGVTQFLPGMIVILFSLRVRPSAVVLGILTGQLMAVVLYLEKVDLGGINLGLPCLAANVVVMVVLNLLRTPKGLQATA”, the protein production entry was “failed”.

“MSTDFAAARLNMVESQIRTADVTDLPLQDALRVVARESVVPASKAYLAYADADIEYAPGRWLLRPREVGKLLQALKPREGETVLAIAAPYAAAVLEKMGLSVTRHDGEDLKTVPAGAYDVIVCEGAVAVAPKSWQDALAHGGRLGVVERTGPVGRAAIYLRAEDGVGRRAAFDASPPLLAGFEAETGFSF”: the protein production result is “failed”.

On to “MSTDKSKTRELILNGNLYKVLFLISFPIVITNIIQAFYDLTDMFYVGKLGAMPLSALSLAGPVNFFIIAIAMGMATGSISLMSKCIGEGNFSRFSRYAGQLIVLNFVLSLFVTICAFFFIDHLLDLLGVKGELKELSRVYFYVTIFAIPIMFLSISITYILNAQGETILSMTIVLFANIVNFILDPILIFSFNMGITGAAWATLFSKLLTVVFYLFLTYRLNYGLKIHLKDLVIDIRSIKEIVNLGLPSTFGQIMVSLSFFIFNYIVIEISPKFLAAYGLTNTIISFLFLPAMGIGTGIISIVGQNLGAKKVNRVEEVLKKGFFISLAILLIINSIVIFNKQFILRLFTNDLEVLNYANNYLLLTTIGTFGYGLQQVFFGGLIGSGRTKIAMIVIFIRLWLIRLPVVFIFQYFGIMENSLGYAFIISNYLAIIILIAFTCTRYWVKPILIKKYK”, for which the protein production result is recorded as “failed”.

In the case of “MSTFGKLFRVTTYGESHCKSVGCIVDGVPPGMSLTEADIQPQLTRRRPGQSKLSTPRDEKDRVEIQSGTEFGKTLGTPIAMMIKNEDQRPHDYSDMDKFPRPSHADFTYSEKYGIKASSGGGRASARETIGRVASGAIAEKFLAQNSNVEIVAFVTQIGEIKMNRDSFDPEFQHLLNTITREKVDSMGPIRCPDASVAGLMVKEIEKYRGNKDSIGGVVTCVVRNLPTGLGEPCFDKLEAMLAHAMLSIPASKGFEIGSGFQGVSVPGSKHNDPFYFEKETNRLRTKTNNSGGVQGGISNGENIYFSVPFKSVATISQEQKTATYDGEEGILAAKGRHDPAVTPRAIPIVEAMTALVLADALLIQKARDFSRSVVH”, the protein production result is on record as “not failed”.

Consider “MSTGQAPEKSNFSQRCSLLSRYLKEKGSFGNINMGLARKSDLELAGKFDLKGQQNVIKKVETSETRPFKLIQKFSIGEASTSTEDKAIYIDLSEPAKVAPESGNSQLTIFFGGKVMVFNEFPEDKAKEIMEVAKEANHVAVDSKNSQSHMNLDKSNVVIPDLNEPTSSGNNEDQETGQQHQVVERIARRASLHRFFAKRKDRAVARAPYQVNQHGSHLPPKPEMVAPSIKSGQSSQHIATPPKPKAHNHMPMEVDKKEGQSSKNLELKL”, for which the protein production entry is reported as “failed”.

“MSTKTGNYISIAIFAFFGGIARAWLNSSFGFYGTFWGNIIGCFLLAFFTYLFMEFKDVRQWLTVGLGTGFVGAFTTFSTFNLDVLKNIQANVPITALIYFLSSIIFGFCFAYLGMNAGKQVGNLLRKED”: the protein production entry is “failed”.

On to “MSTKTVHYPWFKKEDIDAFFALFQNNLANFVIIAVTMIGLGFPASLVFGKVIPGVAVAVIVGNLYYAYMANRLAQKESRSDVTALSYGISTPVMFVFLFGILAPALALTGDPELAWKIGLAAAFLSGFIELLVSFTGNWVRKHLPRPAMLGALAGVAVTFIAGEMLFQVFSIPVVGLVALAIILLGVVGKVTLPFNIPPSLCAVIIGTVLAFVLGYQSANTLQDSLANIGLYPILPSLGAFEGFGYLFGPLVGLLAILLPITIYNAIETMNNVDAMAAAGDSYDVRECQAVDGVGTMIGAVFGGLFPTTVYIATVGSKWMGAGRGYSILNALVFAITAVTGVIAALSELIPLAAVAPILVFVGMSMVVTAFDPNDRKYYPAVALAMLPYVANYVMTRFNNNAGEVVQGISEGIVPLGQGAMFTAIILGAIAVCIIDKQFIKAAVFSLIGAGLSFAGFMHAPELSFNAAPDYSLGYLCIAILFSYCAFRKTSKEAVASPSTLSSKRVAS”, for which the protein production result is listed as “failed”.

With “MSTLQRRRVNRADSGDTSSIHSSANNTKGDKIANIAVDGDDDNGTNKKIAYDPEESKLRDNINIPTLTLMEEVLLMGLRDREGYLSFWNDSISYALRGCIIIELALRGKIRILDDSARKRFDLSERLIEVIDSSKTGEVLLDETLQLMKNDEPLSISNWIDLLSGETWNLLKINYQLKQVRERLAKGLVDKGVLRTEMKNFFLFDMATHPIADASCKEAIKRRVLSVLVSRNMELSYNEYFPETTSFKIIRTLALICGSYGANVLENVLTTLEYEKRDKAISRAEEIMAQFSQYPFDLEKETELGVSVNLNKEVKEEIENNPGHDLQLEVIAGVFEVFSRMDMLL”, the protein production entry is given as “failed”.

As for “MSTPDGDEKEQCFHRAIAKTSIYLDREPGNPELTVWLAINKASLAGAQGGFGALSLAKEAKSLLEGVIATSPQTLDGSAYTSLGSLYYKVPGWPIGFGDDDKAEEMLKKALEINPKGIDPNYFYGDFLAEEGRDKEAKVYLTRAMQASPRPLEHHHHHH”, the protein production entry was “failed”.

On to “MSTPETYKRSALNPETSLLLFLVPNPSNLTPISYTLTIPPPHEKTMLDKHGLLTQPISDVLRKLTTPMVFGMVAILLFNLVDTFFISLLGTDALAAVSFTFPVTFAVNCITMGIGVGLSASIGHLLGEGHSKHAAELTTHGIILAISLILIACALGFFTIDPLFTLLGAEDKLLPLIDEYMSIWYLTIPLLVIPMSSNSAIRATGDTKTPAKIMMLAGLINGILDPLLIFGYGPFPELGIQGAAIASAISWLGALIASFYVLTHKVKLLALPNKNTLISDWKQILTIGSPAALSNALNPISGAILMMMLASQGTVAVASYGAAQRVESLMLLVIMALTSSLSPLVAQNLGAKQPERVKEAIFLAIKFSVAFQLFLYILIVPLSIPISHLFSQDDAVQHGLWMYLICVPFSYGFQGIVMVLVSSLNAMKKPLYSFSWSFMRLFVFTLPTAWIGSQIYGMEGLFIGIAMGNVMGGISAFWYARTRIRFEDAALEERGDTKS”, for which the protein production entry is given as “failed”.

Take “MSTRLCEPSLRDDGAQRGTPASHGKWCDTGAFKLDETPSPVVANVSSTSDASFQFNRTPSPGKHQNHAADRSMWSLDDFVIIRKLDEGRFGKVYLAREKQSKCAVVLKCISKDMIRFHSLAHQLQREVELQEYAGRYHKNVLRLFAYFWDDVRIVLVLEYADSGTLQDLLDCYREKEQRSSLPDDKVRTILLQLLSALAFLHERDIIHRDVKPDNILFHGEKLLLADFSWAVRVNNSDPRYCRRHTVCGTLDYLAPEQVLKRGCTTKADLWAVGVVAYRMLCGFLPFEMLDARDVCSCIASGAIRYPSQLSPTARHFLQGLLRVDEALRFSCQEALNHPFMRGDCNCRISNRYIESKHRARAEEPVLQHQGSFDTT”: the protein production result is “failed”.

In the case of “MSTVKNGTLEQDKLNWFKYLLFGIQHVLVMIAVPITSVFLVAKALSLSDQLTVNLMSATFLVCGLGTLLQSIGVYKFGSRLPFVMIPGGAPIVMFLGIAQEKDLATASGAVILTSLFYFIILPVFKRFLRFFPNIVIGTLLILVSINLIKIYGGLVIGKPDTADFASTLNIGLAFATIAASLFFARVLKGTLSQLSILLGLIFGTILSAFLGQMHFETITQPTIFSLPTIMPFGVPKFDLVATIPLLIFSLISMVEATGQTIAISDLVGKKETAFERVPPTIRGDALISLLGGWLGTSMIITSGENIGIVRATQVRSRYVTIIAGIILLIISVFTPLAHLANAIPVAVVSGTAIIVFSIIGTIGIDILRRVDLHEKGNMYVLAGALTMGLLPILVNGVYTNFPHALQPILNNGLAMGALTAILLNIVFSTHSQADAHQESK”, the protein production entry is recorded as “failed”.

The values above are taken from a protein production outcome set (Wang et al. 2014).
